# According to patent US20040086966A1 (EUROSCREEN S A, published 2004):
# No end group written: not given here.
# T1: human ChemerinR (human, UniProt Q99788 3-373)
# T1 sequence: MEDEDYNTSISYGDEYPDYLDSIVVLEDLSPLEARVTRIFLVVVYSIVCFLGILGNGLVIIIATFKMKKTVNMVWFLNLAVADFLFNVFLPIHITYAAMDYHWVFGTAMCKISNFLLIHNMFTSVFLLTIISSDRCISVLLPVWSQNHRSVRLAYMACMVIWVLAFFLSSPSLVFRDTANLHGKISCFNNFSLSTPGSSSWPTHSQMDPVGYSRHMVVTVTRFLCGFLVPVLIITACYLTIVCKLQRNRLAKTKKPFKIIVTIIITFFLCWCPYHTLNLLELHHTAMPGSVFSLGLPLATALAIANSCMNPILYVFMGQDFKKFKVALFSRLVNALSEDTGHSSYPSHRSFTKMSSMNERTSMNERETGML
# Columns and labels:
# human ChemerinR [1] = molecular target: T1, human ChemerinR; experiment: cell-based or functional assay
# human ChemerinR [2] = molecular target: T1, human ChemerinR; experiment: cell-based or functional assay; remark: listed apart in the source
# human ChemerinR [3] = molecular target: T1, human ChemerinR; experiment: competition binding on ChemerinR-expressing CHO-K1 cells; tracer (competed ligand) 125I-…
# Protocol: (§1) ChemerinR expressing CHO-K1 cells were collected from plates with PBS supplemented with 5 mM EDTA, gently pelleted for 2 min at 1000×g, and resuspended in binding buffer (50 mM HEPES, pH 7.4, 1 mM CaCl₂, 5 mM MgCl₂, 0.5% BSA). […] Filters were counted in a […]-scintillation counter. Binding parameters were determined with the PRISM software (Graphpad Software) using nonlinear regression applied to a one-site competition model.
# human ChemerinR [4] = molecular target: T1, human ChemerinR; experiment: competition binding on ChemerinR-expressing CHO-K1 cells, tracer 125I-…, one-site model, 3 experiments
# Protocol: as §1
Binder,"Mean EC50, intracellular calcium release (aequorin assay) (human ChemerinR [2])",also measured
"human Prochemerin (recombinant, unprocessed) (ligand) ELTEAQRRGLQVALEEFHKHPPVQWAFQETSVESAVDTPFPAGIFVRLEFKLQQTSCRKRDWKKPECKVRPNGRKRKCLACIKLGSEDKVLGRLVHCPIETQVLREAEEHQETQCLRVQRAGEDPHSFYFPGQFAFSKALPRS",–,"EC50, biological activity on CHO-K1 cells expressing human ChemerinR (aequorin assay) (human ChemerinR [1]): 393 nM"
FYFPGQFAFS [Human Chemerin-10],8.2 nM,–
YAPGQFAFS [Human [Ala-2]Chemerin-9],155 nM,–
QRAGEDPHSFYFPGQFAFSKALPRS [Human prochemerin-25],160000 nM,–
PHSFYFPGQFAFS (not fully specified) [Human Chemerin-13],14 nM,–
AFPGQFAFS [Human [Ala-1]Chemerin-9],496 nM,–
QRAGEDPHSFYFPGQFAF [Human [delta-Ser19]Chemerin-19],97 nM,–
YFPGQFAAS [Human [Ala-8]Chemerin-9],38000 nM,–
QRAGEDPHSFYFPGQFAFSK [Human [Lys20]Chemerin-19],170000 nM,–
HSFYFPGQFAFS [Human Chemerin-12],12.2 nM,–
QRAGEDPHSFYFPGQFAFS [Human Chemerin-19],16.7 nM,–
PGQFAFS [Human Chemerin-7],220000 nM,–
QRAGEDPHSFYFPGQF [Human [delta-Ala17Phe18Ser19]Chemerin-19],130000 nM,–
FPGQFAFS [Human Chemerin-8],2000 nM,–
YFPGQAAFS [Human [Ala-6]Chemerin-9],5000 nM,–
QRAGEDPHSFYFPGQFA [Human [delta-Phe18Ser19]Chemerin-19],220000 nM,–
YHSFFFPGQFAFS (also called unlabeled peptide; unlabel peptide) [YHSFFFPGQFAFS peptide (unlabeled)],–,"IC50 (read off the curve) (human ChemerinR [3]): ~20 nM; Ki (human ChemerinR [4]): 12.1 nM; pKi (human ChemerinR [4]): 7.95; EC50, aequorin-based assay (human ChemerinR [1]): 28 nM"
